Kd data for two molecules are collected here from PMC4374754 (2015).

The experiment concerns the target T1, DNA polymerase V (UmuD′2C) (E. coli, UniProt P04152 1-422; P0AG11 25-139).
T1 chain 1: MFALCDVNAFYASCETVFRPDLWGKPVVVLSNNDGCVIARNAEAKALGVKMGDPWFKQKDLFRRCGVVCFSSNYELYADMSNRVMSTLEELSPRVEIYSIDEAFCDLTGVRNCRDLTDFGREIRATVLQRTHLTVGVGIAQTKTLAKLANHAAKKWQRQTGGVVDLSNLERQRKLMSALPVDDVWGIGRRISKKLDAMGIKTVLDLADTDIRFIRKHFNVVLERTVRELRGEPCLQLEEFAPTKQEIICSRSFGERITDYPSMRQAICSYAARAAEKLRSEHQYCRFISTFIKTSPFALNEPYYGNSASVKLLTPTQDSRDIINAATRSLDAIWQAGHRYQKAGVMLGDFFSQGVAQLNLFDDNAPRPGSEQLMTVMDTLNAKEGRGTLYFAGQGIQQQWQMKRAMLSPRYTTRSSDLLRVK
T1 chain 2: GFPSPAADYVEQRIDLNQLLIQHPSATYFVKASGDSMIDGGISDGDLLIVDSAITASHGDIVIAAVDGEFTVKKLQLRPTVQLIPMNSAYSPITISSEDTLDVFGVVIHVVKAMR
Put plainly: FP; apparent Kd.

B1: RecA D112R, fluorescein-labelled (natural protein)
chain: AIDENKQKALAAALGQIEKQFGKGSIMRLGEDRSMDVETISTGSLSLDIALGAGGLPMGRIVEIYGPESSGKTTLTLQVIAAAQREGKTCAFIDAEHALDPIYARKLGVDIRNLLCSQPDTGEQALEICDALARSGAVDVIVVDSVAALTPKAEIEGEIGDSHMGLAARMMSQAMRKLAGNLKQSNTLLIFINQIRMKIGVMFGNPETTTGGNALKFYASVRLDIRRIGAVKEGENVVGSETRVKVVKNKIAAPFKQAEFQILYGEGINFYGELVDLGVKEKLIEKAGAWYSYKGEKIGQGKANATAWLKDNPETAKEIEKKVRELLLSNPNSTPDFSVDDSEGVAETNEDF
modifications: fluorescein (Fluorescein-EX Protein Labeling Kit); labelled residues not stated
With B1, the Kd was 297 nM.

B2: wild-type E. coli RecA protein, fluorescein-labelled (natural protein)
chain: MAIDENKQKALAAALGQIEKQFGKGSIMRLGEDRSMDVETISTGSLSLDIALGAGGLPMGRIVEIYGPESSGKTTLTLQVIAAAQREGKTCAFIDAEHALDPIYARKLGVDIDNLLCSQPDTGEQALEICDALARSGAVDVIVVDSVAALTPKAEIEGEIGDSHMGLAARMMSQAMRKLAGNLKQSNTLLIFINQIRMKIGVMFGNPETTTGGNALKFYASVRLDIRRIGAVKEGENVVGSETRVKVVKNKIAAPFKQAEFQILYGEGINFYGELVDLGVKEKLIEKAGAWYSYKGEKIGQGKANATAWLKDNPETAKEIEKKVRELLLSNPNSTPDFSVDDSEGVAETNEDF
modifications: fluorescein (Fluorescein-EX Protein Labeling Kit); labelled residues not stated
For B2, the Kd was 239 nM.
